Measurements from paper PMC6746316.

Target: Xenopus tropicalis ALDH16B1 (Xenopus tropicalis)
Assay: SEC

- stoichiometry N: 2
Substance: Xenopus tropicalis ALDH16B1 (enzyme)
